The results in this text go back to patent publication US20200199241A1 (Chugai, published 2020).

In test [1] the target is T1, human FcγRIIa(R) (human, UniProt P12318 36-217).
T1 construct: also called FcgRIIaR; FcγRIIa type R
T1 chain: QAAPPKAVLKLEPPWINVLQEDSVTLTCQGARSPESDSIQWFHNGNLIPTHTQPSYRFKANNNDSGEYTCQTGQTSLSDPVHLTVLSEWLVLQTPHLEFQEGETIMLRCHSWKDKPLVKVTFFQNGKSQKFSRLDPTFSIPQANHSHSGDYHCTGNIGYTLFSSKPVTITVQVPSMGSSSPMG
The test is described as follows: SPR (Biacore).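 Note: antibody variants captured on sensor chip, Fcγ receptor flowed over at 25 °C, bound receptor normalized to amount of captured antibody, expressed relative to reference antibody set as 100.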

The target in test [2] is T2, human FcγRIa (human, UniProt P12314 16-292, limits assumed).
T2 construct: also called FcgRIa; FcγRI (CD64)
The test is described as follows: SPR (Biacore).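 Note: antibody variants captured on sensor chip, Fcγ receptor flowed over at 25 °C, bound receptor normalized to amount of captured antibody, expressed relative to reference antibody set as 100.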

For test [3], the target named is T3, human FcγRIIa(H) (human, UniProt P12318 36-217).
T3 construct: also called FcgRIIaH; FcγRIIa type H
T3 sequence: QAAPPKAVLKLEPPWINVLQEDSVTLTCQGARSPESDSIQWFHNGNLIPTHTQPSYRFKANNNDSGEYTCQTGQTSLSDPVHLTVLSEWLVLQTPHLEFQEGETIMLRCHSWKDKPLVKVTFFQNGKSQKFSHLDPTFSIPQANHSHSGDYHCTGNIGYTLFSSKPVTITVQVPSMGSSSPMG
Briefly: SPR (Biacore).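 Note: antibody variants captured on sensor chip, Fcγ receptor flowed over at 25 °C, bound receptor normalized to amount of captured antibody, expressed relative to reference antibody set as 100.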

Test [4] has as its target T4, human FcγRIIIa(F) (human, UniProt P08637 17-208, limits assumed).
T4 construct: also called FcgRIIIaF; allotype F158
The test is described as follows: SPR (Biacore).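 Note: antibody variants captured on sensor chip, Fcγ receptor flowed over at 25 °C, bound receptor normalized to amount of captured antibody, expressed relative to reference antibody set as 100.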

Test [5] deals with T5, human FcγRIIb (human, UniProt P31994 43-217, limits assumed).
T5 construct: also called FcgRIIb
T5 sequence: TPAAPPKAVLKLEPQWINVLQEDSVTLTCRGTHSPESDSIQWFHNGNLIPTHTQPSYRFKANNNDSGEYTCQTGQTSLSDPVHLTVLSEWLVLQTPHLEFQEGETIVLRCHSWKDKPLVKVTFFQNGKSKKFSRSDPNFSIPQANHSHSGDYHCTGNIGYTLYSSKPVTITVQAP
Briefly: SPR (Biacore).

For test [6], the target named is T6, soluble human FcRn complexed with β2-microglobulin (human, UniProt P61769 21-119, limits assumed).
T6 construct: also called hFcRn
Briefly: Biacore SPR, pH 7.0.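 Note: test antibodies captured on a Protein L chip with human FcRn flowed over as analyte, KD obtained as the ratio of dissociation to association rate constants.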
Description: A kinetic analysis of binding between human FcRn and the aforementioned antibodies was carried out using the BIACORE™ T100 or T200 surface plasmon resonance system (GE Healthcare). The antibodies being tested were captured on the CM4 Sensor Chip (GE Healthcare) on which a suitable amount of Protein L (ACTIGEN® protein (Alltech)) was suitably immobilized by amine coupling. Next, diluted human FcRn and a running buffer used as a blank were injected to allow the human FcRn to interact with the antibody captured on the sensor chip. A buffer consisting of 50 mmol/L sodium phosphate, 150 mmol/L NaCl and 0.05% (w/v) polysorbate 20 (Tween 20®) (pH 7.0 or pH 7.4) was used for the running buffer, and each buffer was also used to dilute the human FcRn. 10 mmol/L glycine-HCl (pH 1.5) was used to regenerate the sensor chip. All measurements of binding were carried out at 25° C. The KD(M) of each antibody to human FcRn was calculated based on kinetics parameters, i.e., the association rate constant ka (1/Ms) and the dissociation rate constant kd (1/s) calculated from a sensorgram obtained by the measurement. The BIACORE™ T100 or T200 Evaluation Software (GE Healthcare) was used to calculate each parameter.

T6 sequence (chain, as listed by the source limits assumed, chain 1 of 2): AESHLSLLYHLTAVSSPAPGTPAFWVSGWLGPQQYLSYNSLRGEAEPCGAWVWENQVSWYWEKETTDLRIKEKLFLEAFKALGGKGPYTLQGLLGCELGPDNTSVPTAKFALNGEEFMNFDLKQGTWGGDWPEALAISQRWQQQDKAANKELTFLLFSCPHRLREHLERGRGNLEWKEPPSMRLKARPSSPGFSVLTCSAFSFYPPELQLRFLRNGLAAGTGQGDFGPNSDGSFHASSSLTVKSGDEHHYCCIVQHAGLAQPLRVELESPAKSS
T6 sequence (P61769 21-119 limits assumed, chain 2 of 2): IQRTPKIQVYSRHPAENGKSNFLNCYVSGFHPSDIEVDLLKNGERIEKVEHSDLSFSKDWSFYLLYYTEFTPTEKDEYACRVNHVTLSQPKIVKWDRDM
T4 sequence (P08637 other isoform, or with tags, fused parts or gaps limits assumed): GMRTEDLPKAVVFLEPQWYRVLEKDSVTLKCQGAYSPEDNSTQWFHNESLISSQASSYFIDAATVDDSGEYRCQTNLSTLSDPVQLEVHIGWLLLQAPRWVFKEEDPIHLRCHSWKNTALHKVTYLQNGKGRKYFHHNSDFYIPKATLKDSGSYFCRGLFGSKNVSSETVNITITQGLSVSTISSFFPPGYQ
T2 sequence (P12314 16-292 limits assumed): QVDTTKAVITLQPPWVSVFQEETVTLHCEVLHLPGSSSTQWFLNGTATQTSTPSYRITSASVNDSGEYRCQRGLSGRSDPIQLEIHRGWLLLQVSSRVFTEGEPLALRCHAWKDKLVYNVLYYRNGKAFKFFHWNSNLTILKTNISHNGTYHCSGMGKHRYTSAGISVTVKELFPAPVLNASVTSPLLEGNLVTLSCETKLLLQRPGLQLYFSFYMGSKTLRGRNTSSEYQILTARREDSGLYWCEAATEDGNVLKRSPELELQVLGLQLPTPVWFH

B1: GpH7-B3 variant E269H/GpL16-k0 (antibody, human IgG1)
heavy: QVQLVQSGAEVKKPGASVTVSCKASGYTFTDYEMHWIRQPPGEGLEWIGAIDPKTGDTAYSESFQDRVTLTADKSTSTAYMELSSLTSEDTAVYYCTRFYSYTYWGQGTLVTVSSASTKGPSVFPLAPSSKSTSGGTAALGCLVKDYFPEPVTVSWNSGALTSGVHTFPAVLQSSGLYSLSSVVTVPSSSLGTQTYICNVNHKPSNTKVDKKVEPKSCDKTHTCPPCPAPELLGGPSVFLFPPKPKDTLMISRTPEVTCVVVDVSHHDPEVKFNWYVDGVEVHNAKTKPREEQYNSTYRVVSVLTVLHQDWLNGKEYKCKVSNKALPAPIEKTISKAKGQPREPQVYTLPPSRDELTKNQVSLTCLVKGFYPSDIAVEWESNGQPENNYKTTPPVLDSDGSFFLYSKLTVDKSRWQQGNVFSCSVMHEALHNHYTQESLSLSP
light: DIVMTQSPLSLPVTPGEPASISCQASESLVHSNRNTYLHWYLQKPGQSPQLLIYKVSNRFSGVPDRFSGSGSGTDFTLKISRVEAEDVGVYYCSQNTHVPPTFGQGTKVEIE
notes: copies: 2 + 2
As for B1, the relative binding activity in test [1] was 12 % of GpH7-B3/GpL16-k0; in test [2] it was 95 % of GpH7-B3/GpL16-k0; in test [3], 24 % of GpH7-B3/GpL16-k0; in test [4], 12 % of GpH7-B3/GpL16-k0.

B2: GpH7-B3 variant G236K/GpL16-k0 (antibody, human IgG1)
heavy: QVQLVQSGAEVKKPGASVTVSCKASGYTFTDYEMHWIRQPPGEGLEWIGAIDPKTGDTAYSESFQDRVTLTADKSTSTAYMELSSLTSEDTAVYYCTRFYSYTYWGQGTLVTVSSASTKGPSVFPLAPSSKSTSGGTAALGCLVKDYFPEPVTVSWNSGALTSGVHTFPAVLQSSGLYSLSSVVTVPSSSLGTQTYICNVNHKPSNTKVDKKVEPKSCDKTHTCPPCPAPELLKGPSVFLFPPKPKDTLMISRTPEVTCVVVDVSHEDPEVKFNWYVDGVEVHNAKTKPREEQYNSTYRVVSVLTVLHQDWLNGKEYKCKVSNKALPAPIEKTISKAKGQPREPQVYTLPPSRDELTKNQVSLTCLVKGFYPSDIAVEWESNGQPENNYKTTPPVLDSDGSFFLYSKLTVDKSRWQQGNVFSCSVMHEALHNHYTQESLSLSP
light: DIVMTQSPLSLPVTPGEPASISCQASESLVHSNRNTYLHWYLQKPGQSPQLLIYKVSNRFSGVPDRFSGSGSGTDFTLKISRVEAEDVGVYYCSQNTHVPPTFGQGTKVEIE
notes: copies: 2 + 2
Take B2: the relative binding activity is 13 % of GpH7-B3/GpL16-k0 in test [2], 18 % of GpH7-B3/GpL16-k0 in test [3], 19 % of GpH7-B3/GpL16-k0 in test [5] and 1 % of GpH7-B3/GpL16-k0 in test [4].

B3: GpH7-B3 variant P238E/GpL16-k0 (antibody, human IgG1)
heavy: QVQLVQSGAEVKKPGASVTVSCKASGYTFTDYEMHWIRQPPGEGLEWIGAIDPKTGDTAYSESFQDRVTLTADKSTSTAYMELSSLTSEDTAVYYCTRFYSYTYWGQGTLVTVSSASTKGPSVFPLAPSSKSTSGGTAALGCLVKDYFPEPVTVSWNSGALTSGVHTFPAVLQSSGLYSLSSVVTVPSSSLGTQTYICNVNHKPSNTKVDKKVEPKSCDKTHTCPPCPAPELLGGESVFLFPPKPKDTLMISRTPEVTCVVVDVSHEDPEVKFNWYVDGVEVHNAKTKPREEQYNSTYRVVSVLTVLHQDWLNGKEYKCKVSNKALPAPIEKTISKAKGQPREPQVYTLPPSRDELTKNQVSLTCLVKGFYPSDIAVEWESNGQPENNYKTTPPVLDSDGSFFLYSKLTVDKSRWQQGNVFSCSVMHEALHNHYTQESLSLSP
light: DIVMTQSPLSLPVTPGEPASISCQASESLVHSNRNTYLHWYLQKPGQSPQLLIYKVSNRFSGVPDRFSGSGSGTDFTLKISRVEAEDVGVYYCSQNTHVPPTFGQGTKVEIE
notes: copies: 2 + 2
B3: the relative binding activity is 21 % of GpH7-B3/GpL16-k0 in test [1], 95 % of GpH7-B3/GpL16-k0 in test [2], 2 % of GpH7-B3/GpL16-k0 in test [3] and 1 % of GpH7-B3/GpL16-k0 in test [4].

B4: GpH7-B3 variant V266F/GpL16-k0 (antibody, human IgG1)
heavy: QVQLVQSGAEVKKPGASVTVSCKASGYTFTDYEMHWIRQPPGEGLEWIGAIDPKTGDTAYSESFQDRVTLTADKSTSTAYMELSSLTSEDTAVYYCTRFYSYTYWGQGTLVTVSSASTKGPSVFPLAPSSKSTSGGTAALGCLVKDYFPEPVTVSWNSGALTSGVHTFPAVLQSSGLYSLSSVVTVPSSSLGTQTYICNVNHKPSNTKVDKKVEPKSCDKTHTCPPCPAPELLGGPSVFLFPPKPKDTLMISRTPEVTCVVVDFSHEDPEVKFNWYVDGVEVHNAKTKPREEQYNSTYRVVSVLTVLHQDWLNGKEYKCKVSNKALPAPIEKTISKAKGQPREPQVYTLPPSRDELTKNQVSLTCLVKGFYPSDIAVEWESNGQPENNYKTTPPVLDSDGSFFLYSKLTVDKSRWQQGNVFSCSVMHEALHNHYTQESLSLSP
light: DIVMTQSPLSLPVTPGEPASISCQASESLVHSNRNTYLHWYLQKPGQSPQLLIYKVSNRFSGVPDRFSGSGSGTDFTLKISRVEAEDVGVYYCSQNTHVPPTFGQGTKVEIE
notes: copies: 2 + 2
For B4, the relative binding activity is 80 % of GpH7-B3/GpL16-k0 in test [2], 88 % of GpH7-B3/GpL16-k0 in test [5] and 2 % of GpH7-B3/GpL16-k0 in test [4].

B5: GpH7-B3 variant G237P/GpL16-k0 (antibody, human IgG1)
heavy: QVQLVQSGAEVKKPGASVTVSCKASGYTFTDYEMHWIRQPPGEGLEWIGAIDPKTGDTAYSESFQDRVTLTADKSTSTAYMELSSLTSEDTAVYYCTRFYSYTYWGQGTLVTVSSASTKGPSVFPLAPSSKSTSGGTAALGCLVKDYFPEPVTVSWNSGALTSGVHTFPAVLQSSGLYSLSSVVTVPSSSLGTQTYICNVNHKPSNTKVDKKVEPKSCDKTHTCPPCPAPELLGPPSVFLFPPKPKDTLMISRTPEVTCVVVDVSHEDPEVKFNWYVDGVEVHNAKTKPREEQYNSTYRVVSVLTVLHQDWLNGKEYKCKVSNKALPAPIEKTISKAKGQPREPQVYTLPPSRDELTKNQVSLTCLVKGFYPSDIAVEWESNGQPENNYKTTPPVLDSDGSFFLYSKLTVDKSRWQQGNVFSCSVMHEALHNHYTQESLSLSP
light: DIVMTQSPLSLPVTPGEPASISCQASESLVHSNRNTYLHWYLQKPGQSPQLLIYKVSNRFSGVPDRFSGSGSGTDFTLKISRVEAEDVGVYYCSQNTHVPPTFGQGTKVEIE
notes: copies: 2 + 2
As for B5, the relative binding activity in test [2] was 3 % of GpH7-B3/GpL16-k0; in test [3], 0 % of GpH7-B3/GpL16-k0; in test [5], 5 % of GpH7-B3/GpL16-k0; in test [4], 0 % of GpH7-B3/GpL16-k0.

B6: GpH7-B3 variant G237Y/GpL16-k0 (antibody, human IgG1)
heavy: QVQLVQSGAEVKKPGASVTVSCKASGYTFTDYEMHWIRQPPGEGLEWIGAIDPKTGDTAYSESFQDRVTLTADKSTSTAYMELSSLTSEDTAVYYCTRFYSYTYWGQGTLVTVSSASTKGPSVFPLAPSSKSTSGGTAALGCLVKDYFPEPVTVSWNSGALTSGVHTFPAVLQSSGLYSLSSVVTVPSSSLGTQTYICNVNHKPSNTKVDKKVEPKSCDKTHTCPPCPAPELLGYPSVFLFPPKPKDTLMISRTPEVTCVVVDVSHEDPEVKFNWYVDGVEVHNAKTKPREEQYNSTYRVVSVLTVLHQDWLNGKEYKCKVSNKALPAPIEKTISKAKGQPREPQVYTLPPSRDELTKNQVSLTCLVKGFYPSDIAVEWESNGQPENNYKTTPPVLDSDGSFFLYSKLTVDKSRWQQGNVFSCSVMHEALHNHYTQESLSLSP
light: DIVMTQSPLSLPVTPGEPASISCQASESLVHSNRNTYLHWYLQKPGQSPQLLIYKVSNRFSGVPDRFSGSGSGTDFTLKISRVEAEDVGVYYCSQNTHVPPTFGQGTKVEIE
notes: copies: 2 + 2
On to B6, for which the relative binding activity was 77 % of GpH7-B3/GpL16-k0 in test [1], 7 % of GpH7-B3/GpL16-k0 in test [2], 4 % of GpH7-B3/GpL16-k0 in test [3] and 0 % of GpH7-B3/GpL16-k0 in test [4].

B7: GpH7-B3 variant S239R/GpL16-k0 (antibody, human IgG1)
heavy: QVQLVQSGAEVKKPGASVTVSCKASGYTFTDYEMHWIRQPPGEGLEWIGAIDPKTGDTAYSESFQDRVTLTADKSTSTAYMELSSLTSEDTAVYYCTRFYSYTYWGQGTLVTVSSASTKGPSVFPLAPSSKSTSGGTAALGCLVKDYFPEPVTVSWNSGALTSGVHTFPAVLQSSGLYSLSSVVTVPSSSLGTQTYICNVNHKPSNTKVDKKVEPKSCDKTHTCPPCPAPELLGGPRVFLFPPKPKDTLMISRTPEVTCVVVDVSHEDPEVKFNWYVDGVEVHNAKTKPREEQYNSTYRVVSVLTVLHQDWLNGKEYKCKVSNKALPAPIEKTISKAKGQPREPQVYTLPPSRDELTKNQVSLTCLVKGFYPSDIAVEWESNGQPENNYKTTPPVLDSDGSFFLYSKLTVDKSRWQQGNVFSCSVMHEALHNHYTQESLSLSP
light: DIVMTQSPLSLPVTPGEPASISCQASESLVHSNRNTYLHWYLQKPGQSPQLLIYKVSNRFSGVPDRFSGSGSGTDFTLKISRVEAEDVGVYYCSQNTHVPPTFGQGTKVEIE
notes: copies: 2 + 2
As for B7, the relative binding activity is 52 % of GpH7-B3/GpL16-k0 in test [2], 13 % of GpH7-B3/GpL16-k0 in test [3], 5 % of GpH7-B3/GpL16-k0 in test [5] and 1 % of GpH7-B3/GpL16-k0 in test [4].

B8: GpH7-B3 variant E269I/GpL16-k0 (antibody, human IgG1)
heavy: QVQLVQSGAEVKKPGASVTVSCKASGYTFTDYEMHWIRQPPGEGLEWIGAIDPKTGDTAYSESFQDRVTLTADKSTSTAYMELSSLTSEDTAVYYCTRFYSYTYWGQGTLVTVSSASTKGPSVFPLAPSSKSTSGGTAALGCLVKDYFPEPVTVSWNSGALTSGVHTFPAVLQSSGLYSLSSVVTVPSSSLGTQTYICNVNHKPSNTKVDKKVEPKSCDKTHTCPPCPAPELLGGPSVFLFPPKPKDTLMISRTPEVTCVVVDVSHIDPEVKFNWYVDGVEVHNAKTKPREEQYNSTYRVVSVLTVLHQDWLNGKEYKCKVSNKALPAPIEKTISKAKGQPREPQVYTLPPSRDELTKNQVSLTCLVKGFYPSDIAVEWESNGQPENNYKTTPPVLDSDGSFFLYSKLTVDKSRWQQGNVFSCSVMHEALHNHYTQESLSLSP
light: DIVMTQSPLSLPVTPGEPASISCQASESLVHSNRNTYLHWYLQKPGQSPQLLIYKVSNRFSGVPDRFSGSGSGTDFTLKISRVEAEDVGVYYCSQNTHVPPTFGQGTKVEIE
notes: copies: 2 + 2
Turning to B8, the relative binding activity in test [1] is 16 % of GpH7-B3/GpL16-k0; in test [2], 94 % of GpH7-B3/GpL16-k0; in test [3] it was 32 % of GpH7-B3/GpL16-k0; in test [4], 10 % of GpH7-B3/GpL16-k0.

B9: GpH7-B3 variant L234G/GpL16-k0 (antibody, human IgG1)
heavy: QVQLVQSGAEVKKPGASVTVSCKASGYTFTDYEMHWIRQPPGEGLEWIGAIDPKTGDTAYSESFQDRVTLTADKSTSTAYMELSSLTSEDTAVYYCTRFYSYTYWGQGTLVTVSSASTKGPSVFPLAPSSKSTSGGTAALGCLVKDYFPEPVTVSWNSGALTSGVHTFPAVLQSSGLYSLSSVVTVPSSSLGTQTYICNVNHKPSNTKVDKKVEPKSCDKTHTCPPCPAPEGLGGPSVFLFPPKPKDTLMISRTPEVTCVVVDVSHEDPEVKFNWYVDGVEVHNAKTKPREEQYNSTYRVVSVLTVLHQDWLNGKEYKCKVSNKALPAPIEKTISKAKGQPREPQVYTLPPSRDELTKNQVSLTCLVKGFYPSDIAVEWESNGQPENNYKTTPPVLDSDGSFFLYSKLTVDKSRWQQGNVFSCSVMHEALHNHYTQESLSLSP
light: DIVMTQSPLSLPVTPGEPASISCQASESLVHSNRNTYLHWYLQKPGQSPQLLIYKVSNRFSGVPDRFSGSGSGTDFTLKISRVEAEDVGVYYCSQNTHVPPTFGQGTKVEIE
notes: copies: 2 + 2
For B9, the relative binding activity was 28 % of GpH7-B3/GpL16-k0 in test [2], 11 % of GpH7-B3/GpL16-k0 in test [3], 10 % of GpH7-B3/GpL16-k0 in test [5] and 11 % of GpH7-B3/GpL16-k0 in test [4].

B10: IgG1-F1376 (antibody)
heavy: QVQLQESGPGLVKPSETLSLTCAVSGHSISHDHAWSWVRQPPGEGLEWIGFISYSGITNYNPSLQGRVTISRDNSKNTLYLQMNSLRAEDTAVYYCARSLARTTAMDYWGEGTLVTVSSASTKGPSVFPLAPSSKSTSGGTAALGCLVKDYFPEPVTVSWNSGALTSGVHTFPAVLQSSGLYSLSSVVTVPSSSLGTQTYICNVNHKPSNTKVDKKVEPKSCDKTHTCPPCPAPELRGGPKVFLFPPKPKDTLYITREPEVTCVVVDVSHEDPEVKFNWYVDGVEVHNAKTKPREEQYNSTYRVVSVLTVLHQDWLNGKEYKCKVSNKALPAPIEKTISKAKGQPREPQVYTLPPSRDELTKNQVSLTCLVKGFYPSDIAVEWESNGQPENNYKTTPPVLDSDGSFFLYSKLTVDKSRWQQGNVFSCSVMHEALHYHVTQKSLSLSP
light: not shown
notes: EU numbering; copies: 2 + 2
As to B10, the Kd in test [6] was determined as 90.9 nM.

B11: IgG1-F1379 (antibody)
heavy: QVQLQESGPGLVKPSETLSLTCAVSGHSISHDHAWSWVRQPPGEGLEWIGFISYSGITNYNPSLQGRVTISRDNSKNTLYLQMNSLRAEDTAVYYCARSLARTTAMDYWGEGTLVTVSSASTKGPSVFPLAPSSKSTSGGTAALGCLVKDYFPEPVTVSWNSGALTSGVHTFPAVLQSSGLYSLSSVVTVPSSSLGTQTYICNVNHKPSNTKVDKKVEPKSCDKTHTCPPCPAPELRGGPKVFLFPPKPKDTLYISRTPEVTCVVVDVSHEDPEVKFNWYVDGVEVHNAKTKPREEQYNSTYRVVSVLTVLHQDWLNGKEYKCKVSNKALPAPIEKTISKAKGQPREPQVYTLPPSRDELTKNQVSLTCLVKGFYPSDIAVEWESNGQPENNYKTTPPVLDSDGSFFLYSKLTVDKSRWQQGNVFSCSVMHEALHYHFTQKSLSLSP
light: not shown
notes: EU numbering; copies: 2 + 2
B11: the Kd in test [6] came out at 285 nM.

B12: IgG1-F1377 (antibody)
heavy: QVQLQESGPGLVKPSETLSLTCAVSGHSISHDHAWSWVRQPPGEGLEWIGFISYSGITNYNPSLQGRVTISRDNSKNTLYLQMNSLRAEDTAVYYCARSLARTTAMDYWGEGTLVTVSSASTKGPSVFPLAPSSKSTSGGTAALGCLVKDYFPEPVTVSWNSGALTSGVHTFPAVLQSSGLYSLSSVVTVPSSSLGTQTYICNVNHKPSNTKVDKKVEPKSCDKTHTCPPCPAPELRGGPKVFLFPPKPKDTLYISREPEVTCVVVDVSHEDPEVKFNWYVDGVEVHNAKTKPREEQYNSTYRVVSVLTVLHQDWLNGKEYKCKVSNKALPAPIEKTISKAKGQPREPQVYTLPPSRDELTKNQVSLTCLVKGFYPSDIAVEWESNGQPENNYKTTPPVLDSDGSFFLYSKLTVDKSRWQQGNVFSCSVMHEALHYHVTQKSLSLSP
light: not shown
notes: EU numbering; copies: 2 + 2
Consider B12, for which the equilibrium dissociation constant (Kd) in test [6] stood at 82.7 nM.

B13: IgG1-F1378 (antibody)
heavy: QVQLQESGPGLVKPSETLSLTCAVSGHSISHDHAWSWVRQPPGEGLEWIGFISYSGITNYNPSLQGRVTISRDNSKNTLYLQMNSLRAEDTAVYYCARSLARTTAMDYWGEGTLVTVSSASTKGPSVFPLAPSSKSTSGGTAALGCLVKDYFPEPVTVSWNSGALTSGVHTFPAVLQSSGLYSLSSVVTVPSSSLGTQTYICNVNHKPSNTKVDKKVEPKSCDKTHTCPPCPAPELRGGPKVFLFPPKPKDTLYISRTPEVTCVVVDVSHEDPEVKFNWYVDGVEVHNAKTKPREEQYNSTYRVVSVLTVLHQDWLNGKEYKCKVSNKALPAPIEKTISKAKGQPREPQVYTLPPSRDELTKNQVSLTCLVKGFYPSDIAVEWESNGQPENNYKTTPPVLDSDGSFFLYSKLTVDKSRWQQGNVFSCSVMHEALHYHTTQKSLSLSP
light: not shown
notes: EU numbering; copies: 2 + 2
In the case of B13, the dissociation constant (Kd) in test [6] was found to be 361 nM.
